# Source: patent US12552866B2, “Internalizing binding molecules targeting receptors involved in cell proliferation or in cell differentiation” (LinXis B.V., priority 2019, dated 2026)
# Positions count from the first letter of the chain named. “Also recorded” adds a separate entry of the source.
# B1: 13F11-A647: VHH 13F11 with C-terminal free cysteine conjugated using maleimide chemistry to Alexa Fluor 647 (conjugate)
# VHH: EVQLVESGGRLVQPGDSLRLSCAASGRTFSDNAMGWFRQAPGKERRFVAGISWAGGSTYYSDSVKGRFTISRDNAKNTVYLQMNSLKPEDTAVYYCAAGLRAWVQRMPKDYNYWGQGTQVTVSS
# B2: 13A8: VHH targeting IGF2R, SEQ ID NO: 257 (protein, listed as Lama glama)
# VHH: EVQLVESGGGLVPAGGSLRLSCAASGRTFSNYAMGWFRQAPGKERKFVATISWSGGVTYYADSVKGRFTISRDNAKNTVYLLMNSLKPEDTAVYYCAAKRDSSSYDHRRYDYWGQGTQVTVSS
# B3: 13E8: VHH targeting IGF2R, SEQ ID NO: 249 (protein, listed as Lama glama)
# VHH: EVQLVESGGGLVQAGGSLRLSCAASRSISPMGWYRQAPGKQRELVAIMPSSGPPIYADSVQGRFTISRDNAKNTVYLQMNSLKPEDTAVYYCNVGGGYWGQGTQVTVSS
# B4: 13F11-13E8-ABD: 13F11-13E8 re-engineered to include an albumin binding domain (ABD) as half-life extender (protein)
# chain: EVQLVESGGRLVQPGDSLRLSCAASGRTFSDNAMGWFRQAPGKERRFVAGISWAGGSTYYSDSVKGRFTISRDNAKNTVYLQMNSLKPEDTAVYYCAAGLRAWVQRMPKDYNYWGQGTQVTVSSGGGGSGGGGSGGGGSEVQLVESGGGLVQAGGSLRLSCAASRSISPMGWYRQAPGKQRELVAIMPSSGPPIYADSVQGRFTISRDNAKNTVYLQMNSLKPEDTAVYYCNVGGGYWGQGTQVTVSS
# modifications: left off: large carriers; small tags and cut ends
# B5: 13F11-13E8-ABD-AF647: 13F11-13E8-ABD conjugated to Alexa Fluor 647 (conjugate)
# chain: B4 chain
# modifications: left off: large carriers; small tags and cut ends
# B6: test conjugate: 13F11-13E8-ABD conjugated to a Y27632-maleimide modified functional moiety (1e) (conjugate)
# chain: B4 chain
# modifications: non-natural residues; left off: large carriers; small tags and cut ends
# B7: 13A12: VHH targeting IGF2R, SEQ ID NO: 289 (protein, listed as Lama glama)
# VHH: EVQLVESGGGLVQAGGSLRLSCAASGIIFGANTVGWYRQVPGKERDVVASITSGDSTYYGDSVRGRFTISRDNAKNTMYLQMNSLKPEDTAIYYCRARTTDGSYWGQGTQVTVS
# B8: 13C11: VHH targeting IGF2R, SEQ ID NO: 297 (protein, listed as Lama glama)
# VHH: EVQLVESGGGLVQAGGSLRLSCAASGLTFSSYTMAWYRQAPGKEREVVAAISSGDSIYHEGSVQGRFIISRDNAKNTVYLQMNSLKAEDTAVYYCRANGPGTYWGQGTQVTVSS
# B9: 13G10: VHH targeting IGF2R, SEQ ID NO: 305 (protein, listed as Lama glama)
# VHH: B8 VHH with G61D
# What was measured:
# hIGF2R-ECD [1] = target: T1, hIGF2R-ECD (Homo sapiens, UniProt P11717); assay: Binding assay / titration ELISA on recombinant hIGF2R-ECD; conditions: construct conjugated to Alexa Fluor 647, direct read out; KD+SEM, n=2; read-out: calculated affinity (KD)
# T1 construct: recombinant human extracellular domain of IGF2R (hIGF2R-ECD)
# Method: The 15 unique hIGF2R binders (Example 1.1, FIG. 2) were produced and purified as described in examples 2 and 3. The apparent affinities were determined with binding assays on hIGF2R-ECD. Briefly, three-fold serial VHH dilutions, starting from 1 μM, were added onto hIGF2R-ECD coated plates. After 2 hours of incubation, plates were washed and bound VHH was detected using a VHH-specific IgG antibody, followed by an IRD800CW-conjugated IgG-specific antibody. […] VHH 13F11 was also produced with a C-terminal free cysteine and conjugated using maleimide chemistry to Alexa Fluor 647 (13F11-A647 in FIG. 8A, conjugation method as described in example 9.2). A titration ELISA (direct read out at 647 nm) with this construct was carried out on hIGF2R-ECD to determine whether the affinity was affected after site directed conjugation (FIG. 8B). The KD and Bmax were calculated in Graphpad (version 8.3), using one-site specific binding analysis (FIG. 8C).
# Based on their high affinity and binding to non-overlapping receptor epitopes, VHHs 13F11 and 13E8 were selected for the design of biparatopic and bivalent VHH constructs. Two VHHs were fused with a flexible linker, consisting of three Gly-Gly-Gly-Gly-Ser repeats (FIG. 8A). The sequences were codon optimized for expression in E. coli and obtained as synthesized DNA fragments from GeneArt. The DNA fragments encoding VHHs were cloned into a vector pET28-based vector introducing a C-terminal free cysteine for site-directed conjugation and His6 tag for IMAC purification (FIG. 8A). The constructs were produced and purified as described in example 3. The constructs were conjugated to Alexa Fluor 647 (conjugation method as described in example 9.2) and titration ELISAs on recombinant hIGF2R-ECD (as described in example 4.1) were performed to determine the KD and Bmax (calculated in Graphpad (version 8.3), using one-site specific binding analysis) (FIG. 8C).
# Next, 13F11-13E8 was genetically re-engineered to include an in vivo half-life extender in the form of an albumin binding domain (ABD) as described by Johansson et al (Structure, specificity, and mode of interaction for bacterial albumin-binding modules, J. Biol. Chem. 2002 (277): 8114-8120) and subsequently produced and purified as described in Example 3. Subsequently, 13F11-13E8-ABD was conjugated to IRDye800CW (F11E8-ABD-IRD800, conjugation method as described in example 9.2) and the binding affinities of the biparatopic VHH as well as the ABD unit was determined. […] The binding affinity (KD) of F11-E8-ABD-IRD800 to rat serum albumin (RSA) was 30 nM and to mouse serum albumin (MSA) and human serum albumin (HSA) the binding affinity was approximately 200 nM.
# hIGF2R-ECD [2] = target: T1, hIGF2R-ECD; assay: Competition ELISA with 13F11-A647 on immobilized hIGF2R-ECD; type: binding; conditions: for competition with 13F11 for binding to hIGF2R-ECD: 10 nM 13F11-A647, 250 nM unconjugated competitor
# Method: With the term “compete” is meant that in a competition assay, such as for instance described in Example 5 and Example 8 of the present invention, the addition of a binding molecule induces a significant decrease in binding of a given VHH, i.e., the VHH to which the competing is determined. “Significant” in this respect is preferably a decrease of >5%, preferably >10% when 250 nM of a binding molecule is added to 10 nM of a fluorescence labelled VHH in an ELISA. […] The same test conditions and threshold apply to a binding molecule directed to PDGFRB when determining whether a binding molecule competes with a given VHH.
# From the panel of 15 hIGF2R specific binders (FIG. 2), VHHs 13A8, 13A12, 13C11, 13E8, 13F11 and 13G10 were chosen for further characterization. A competition assay was performed to determine if the selected VHHs recognize distinct epitopes on hIGF2R. For this, a non-saturating amount (10 nM) of 13F11 conjugated to Alexa Fluor 647 (13F11-A647, conjugation method as described in example 9.2) was incubated with immobilized hIGF2R-ECD in the presence of unconjugated competitor (250 nM) (FIG. 10). Incubation of hIGF2R-ECD with 13F11-A647+13F11 was used as a positive control and incubation of hIGF2R-ECD with only 13F11-A647 was used to define the maximal fluorescence intensity.
# [3] = In vivo pharmacokinetics in healthy Sprague-Dawley rats (serum ELISA); design: species or system rat
# Method: The in vivo pharmacokinetic properties of 13F11-13E8-ABD was compared to 13F11-13E8 without the ABD moiety in healthy Sprague-Dawley rats. In brief, rats were dosed intravenously with approximately 3 mg/kg body weight and blood samples were taken at different time points and the concentration of the VHH constructs were determined using an ELISA on immobilized hIGF2R-ECD.
# IGF2R [4] = target: T2, IGF2R (Rattus norvegicus, UniProt G3V824); assay: Immunofluorescence staining of tissue cryo-sections of BDL and SHAM rats
# T2 construct: from tissue; host or cells: cryo-sections of liver and other tissues, and liver in vivo, of Sprague-Dawley BDL and SHAM rats
# Method: After cryo-sectioning, the tissue sections were stained with 50 nM fluorescent 13F11-13E8-ABD-AF647 and incubated overnight at 4° C. Subsequently, the sections were washed and stained with DAPI and mounted with mowiol mounting medium (Merck) and were imaged on a Zeiss LSM700 laser scanning confocal microscope with a 20× objective.
# IGF2R [5] = target: T2, IGF2R; assay: In situ detection of infused conjugate in liver cryo-sections (in vivo targeting of IGF2R)
# Method: (§1) After catheterization and hemodynamic stabilization, rats were dosed with 5 mg/kg test conjugate or mock conjugate i.v. through the lateral tail vein and pressures were monitored continuously (example 13.1.). One hour after dosing, animals were sacrificed after which tissues were isolated for ex vivo analysis (example 13.2.).
# After isolation, livers obtained from test conjugate-infused BDL and SHAM rats were fixated with paraformaldehyde, soaked in 30% (w/v) sucrose in PBS, and sectioned using cryo-microtome. To detect the test conjugate in situ, tissue sections were stained with a rabbit polyclonal anti-VHH antiserum recognizing the 13F11-13E8 moiety of the conjugate, followed by an anti-rabbit antibody conjugated to the fluorophore Alexa-488 for visualization by confocal fluorescence microscopy (cf. example 12). […] Further accumulation of the test conjugate in the BDL liver beyond this one-hour time point was likely to have occurred.
# [6] = tested on: BDL rats (portal hypertension); assay: Portal pressure and mean arterial pressure in BDL and SHAM rats after i.v. dosing; type: in vivo, rat; conditions: 5 mg/kg i.v.
# Text: To evaluate in vivo functionality, 13F11-13E8-ABD was conjugated to a Y27632-maleimide modified functional moiety (1e) (the test conjugate) as outlined in example 9.2. To provide a comparator, a similar amount of 13F11-13E8-ABD was conjugated to N-ethylmaleimide in a parallel and similar preparation (the mock conjugate).
# To establish animals displaying portal hypertension (Klein et al, Fibrosis: Methods and Protocols. Methods in Molecular Biology. 2017 (1627): 91-122.), Sprague-Dawley rats were subjected to bile duct ligation (BDL) through median laparotomy under ketamine/xylazine-induced anaesthesia i.p. (BDL rats). To provide healthy controls, a second cohort of rats was subjected to the same surgical procedure except for actual ligation of the bile duct (SHAM rats). Surgery was followed-up with pain control medication (carprofen s.c.). Approximately five weeks after surgery, ketamine/xylazine anesthetized rats were subjected to median laparotomy, after which one catheter was inserted through an ileocecal vein to the portal vein, and one catheter was inserted into the femoral artery. The catheters were connected to pressure recording equipment, for assessment of portal pressure and mean arterial pressure, respectively.
# as §1
# [7] = one hour after 5 mg/kg i.v., anti-VHH staining
# T2 sequence (G3V824 36-2481): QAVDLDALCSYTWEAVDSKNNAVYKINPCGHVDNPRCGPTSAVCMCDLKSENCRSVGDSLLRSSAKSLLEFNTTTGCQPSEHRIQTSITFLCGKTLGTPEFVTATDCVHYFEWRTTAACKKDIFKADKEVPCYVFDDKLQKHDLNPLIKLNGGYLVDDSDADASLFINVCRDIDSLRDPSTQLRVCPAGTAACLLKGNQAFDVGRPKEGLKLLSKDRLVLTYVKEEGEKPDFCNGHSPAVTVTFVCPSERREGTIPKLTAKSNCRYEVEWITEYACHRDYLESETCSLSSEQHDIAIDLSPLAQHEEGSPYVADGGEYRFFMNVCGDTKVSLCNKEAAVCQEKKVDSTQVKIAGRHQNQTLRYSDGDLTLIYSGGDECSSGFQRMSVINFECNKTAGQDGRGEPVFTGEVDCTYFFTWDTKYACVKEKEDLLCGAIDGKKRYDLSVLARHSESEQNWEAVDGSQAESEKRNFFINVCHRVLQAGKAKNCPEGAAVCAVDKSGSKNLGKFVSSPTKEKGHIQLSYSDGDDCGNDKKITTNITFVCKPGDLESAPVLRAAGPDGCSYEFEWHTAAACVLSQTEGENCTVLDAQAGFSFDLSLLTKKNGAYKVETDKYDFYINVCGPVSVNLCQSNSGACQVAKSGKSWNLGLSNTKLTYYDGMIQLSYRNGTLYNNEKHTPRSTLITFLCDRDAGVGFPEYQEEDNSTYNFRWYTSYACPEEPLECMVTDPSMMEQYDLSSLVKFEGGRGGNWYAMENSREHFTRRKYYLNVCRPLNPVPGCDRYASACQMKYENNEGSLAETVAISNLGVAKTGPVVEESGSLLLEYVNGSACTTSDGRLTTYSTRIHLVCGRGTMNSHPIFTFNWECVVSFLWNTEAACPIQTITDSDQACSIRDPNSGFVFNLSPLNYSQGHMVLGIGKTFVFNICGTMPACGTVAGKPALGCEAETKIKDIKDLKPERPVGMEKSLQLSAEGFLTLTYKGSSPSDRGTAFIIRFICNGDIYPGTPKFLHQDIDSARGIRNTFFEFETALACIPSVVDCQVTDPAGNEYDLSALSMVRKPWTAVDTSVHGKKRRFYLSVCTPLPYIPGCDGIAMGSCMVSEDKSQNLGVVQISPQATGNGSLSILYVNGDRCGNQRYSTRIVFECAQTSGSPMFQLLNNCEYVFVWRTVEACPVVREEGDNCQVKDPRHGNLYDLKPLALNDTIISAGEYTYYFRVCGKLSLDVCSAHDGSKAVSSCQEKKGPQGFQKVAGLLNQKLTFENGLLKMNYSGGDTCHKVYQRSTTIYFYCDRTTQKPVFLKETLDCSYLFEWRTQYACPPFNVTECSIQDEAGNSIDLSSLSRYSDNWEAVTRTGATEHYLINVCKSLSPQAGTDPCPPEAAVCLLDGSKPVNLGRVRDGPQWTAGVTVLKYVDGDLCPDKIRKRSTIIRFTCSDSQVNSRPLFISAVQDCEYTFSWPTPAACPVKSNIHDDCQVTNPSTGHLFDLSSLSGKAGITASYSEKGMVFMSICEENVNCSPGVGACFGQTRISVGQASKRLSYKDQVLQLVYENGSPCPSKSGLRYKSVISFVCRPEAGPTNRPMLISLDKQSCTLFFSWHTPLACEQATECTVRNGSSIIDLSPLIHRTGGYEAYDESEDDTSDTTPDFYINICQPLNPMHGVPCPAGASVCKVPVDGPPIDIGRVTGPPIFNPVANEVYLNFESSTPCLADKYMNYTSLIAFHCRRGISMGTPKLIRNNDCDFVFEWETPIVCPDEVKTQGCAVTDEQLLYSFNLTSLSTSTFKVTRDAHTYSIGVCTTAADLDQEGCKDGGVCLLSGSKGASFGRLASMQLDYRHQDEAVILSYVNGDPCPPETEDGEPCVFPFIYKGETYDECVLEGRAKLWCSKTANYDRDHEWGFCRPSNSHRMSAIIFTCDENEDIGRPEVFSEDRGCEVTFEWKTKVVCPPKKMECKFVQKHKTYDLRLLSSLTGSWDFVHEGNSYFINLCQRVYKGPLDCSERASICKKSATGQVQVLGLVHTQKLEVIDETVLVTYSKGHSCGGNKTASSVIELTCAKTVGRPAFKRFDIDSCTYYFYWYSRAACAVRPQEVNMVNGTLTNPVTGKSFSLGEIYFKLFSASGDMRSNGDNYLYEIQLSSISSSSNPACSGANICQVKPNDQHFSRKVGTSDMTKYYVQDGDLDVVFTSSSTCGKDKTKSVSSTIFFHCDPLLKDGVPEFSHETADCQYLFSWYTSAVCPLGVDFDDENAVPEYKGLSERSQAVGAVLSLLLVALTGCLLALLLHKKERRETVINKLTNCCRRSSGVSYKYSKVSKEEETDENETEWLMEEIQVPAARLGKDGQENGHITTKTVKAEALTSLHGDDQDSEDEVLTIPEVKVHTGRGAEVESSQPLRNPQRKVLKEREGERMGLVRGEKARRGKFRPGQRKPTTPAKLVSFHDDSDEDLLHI
molecule,measurement,setting,value
B1,Kd,hIGF2R-ECD [1],1 ± 0.61 nM
B2,competition with 13F11 for binding to hIGF2R-ECD,hIGF2R-ECD [2],complete competition; also recorded: compete
B3,competition with 13F11 for binding to hIGF2R-ECD,hIGF2R-ECD [2],did not compete; also recorded: do not compete
same,decrease in fluorescence intensity of labelled 13F11,"hIGF2R-ECD [2]; 10 nM labelled 13F11, 250 nM unlabelled competitor",less than 5%
B4,fraction of the infused dose still in circulation,"[3]; one hour after dosing, estimated serum volume 10 mL",approximately 50%
same,Cmax,"[3]; rat, i.v., approximately 3 mg/kg, read-out: peak serum level (Cmax)",> 1000 nM
B5,binding to cells in liver sections of BDL rats,"IGF2R [4]; 50 nM, overnight at 4° C.",clearly binds to cells in a liver from BDL rats
same,binding to cells in liver sections of SHAM rats,"IGF2R [4]; 50 nM, overnight at 4° C.",not to cells in a liver from SHAM rats
same,"staining of other tissues (kidney, spleen, heart, ileum, brain)",IGF2R [4]; BDL and SHAM rats,"no, or minor staining"
B6,distribution of conjugate versus tissue distribution of IGF2R,IGF2R [5]; liver of BDL rats,overlapped with the (tissue) distribution of IGF2R; also recorded: displays co-localization with IGF2R
same,detection of conjugate in liver of BDL rats,IGF2R [5]; [7],clearly detected
same,detection of conjugate in liver of SHAM rats,IGF2R [5]; [7],not in the healthy liver of SHAM rats
same,mean arterial pressure (MAP),"[6]; BDL rats, one hour",remained constant
same,portal pressure (PP),"[6]; BDL rats, one hour",gradual decrease of portal pressure
same,portal or arterial pressure,[6]; SHAM rats,neither the test conjugate nor the mock conjugate affected portal or arterial pressure
B7,competition with 13F11 for binding to hIGF2R-ECD,hIGF2R-ECD [2],compete
B8,competition with 13F11 for binding to hIGF2R-ECD,hIGF2R-ECD [2],compete
B9,competition with 13F11 for binding to hIGF2R-ECD,hIGF2R-ECD [2],compete
